Measurements taken from PMC3247280, “Oligomerization of ZFYVE27 (Protrudin) Is Necessary to Promote Neurite Extension” (PLoS ONE, 2011).

B1: endogenous ZFYVE27 of NSC34 cells (natural protein, mouse (endogenous in NSC34), UniProt Q3TXX3 1-415, looked up)
chain: MQTSDRDLSGPEASPSGMPEVLSECPPAPTKSAAFDLFNLVLSYKRLEIYLEPLKDAGDGVRYLLRWQMPLCSLLTCLGLNILFLTLNEGAWYSMGALMISVPALLGYLQEVCRGQLPESELMRRKYHSIRQEDLQRVRLSRVHLSRPEAVAEVKSFLIQLEAFLARLCYTCESAYRVLHWENPVVSSQFYGALLGMVCMLYLLPLCWVLALLNSTLFLGNGDFFRVVCEYRACLQRRMNPRQEECACESSALQGAGGRGLLDSSPAPTPTEDLTPGSVEEAEEAEPDEEFKDAIEETHLVVLEDEEGTPCPAEDELTLQDNGFLSKNEVLRSKVSRLTERLRKRYPTNNFGNCAGCAATFSVLKKRRSCSNCGNSFCSRCCSFKVPRSSMGATAPEAQRETVCVCASCNQTLSK
notes: ZFYVE27 expressed endogenously in NSC34 (a mouse embryonic spinal cord-neuroblastoma hybrid cell line); also called mo-ZFYVE27; di-ZFYVE27
B2: ZFYVE27^WT (full-length ZFYVE27, E2- or c-Myc-tagged, in mammalian cells) (natural protein, human, UniProt Q5T4F4-2 1-404, looked up)
chain: MQTSEREGSGPELSPSVMPEAPLESPPFPTKSPAFDLFNLVLSYKRLEIYLEPLKDAGDGVRYLLRWQMPLCSLLTCLGLNVLFLTLNEGAWYSVGALMISVPALLGYLQEVCRARLPDSELMRRKYHSVRQEDLQRGRLSRPEAVAEVKSFLIQLEAFLSRLCCTCEAAYRVLHWENPVVSSQFYGALLGTVCMLYLLPLCWVLTLLNSTLFLGNVEFFRVVSEYRASLQQRMNPKQEEHAFESPPPPDVGGKDGLMDSTPALTPTEDLTPGSVEEAEEAEPDEEFKDAIEEDDEGAPCPAEDELALQDNGFLSKNEVLRSKVSRLTERLRKRYPTNNFGNCTGCSATFSVLKKRRSCSNCGNSFCSRCCSFKVPKSSMGATAPEAQRETVFVCASCNQTLSK
notes: numbers count on: this 404-residue isoform; Each copy carries only one tag: E2 (vector pQM-N-Tag A) or six c-Myc tags (vector pCS2-myc); The two differently tagged copies are written as one molecule because the protein is tested against itself; With the E2-tagged deletion constructs the c-Myc copy was used; with GFP-Spastin and in the sucrose gradient the E2 copy; also called E2-ZFYVE27^WT; …

Columns and labels:
[1] = target: the molecule itself; test: SDS-PAGE and immunoblot (SDS-resistant dimer); NSC34 cell extract, cytosolic (S-100) and membrane (P-100) fractions, immunoblot with ZFYVE27 antibody
[2] = target: the molecule itself; test: SDS-PAGE and immunoblot (SDS-resistant dimer); lysates of NIH-3T3 overexpressing E2-ZFYVE27^WT or c-Myc-ZFYVE27^WT, immunoblot with ZFYVE27 antibody

Protein	stoichiometry N [1]	stoichiometry N [2]
B1	2	
B2		2
